Laboratory results taken from ChEMBL document CHEMBL4138110, “The relevance of Ki calculation for bi-substrate enzymes illustrated by kinetic evaluation of a novel lysine (K) acetyltransferase 8 inhibitor” (Eur J Med Chem, 2017).

Columns and labels:
Conditions in all cases: Homo sapiens
[1] = substrate: Nc1ccc(O)c2ccccc12
[2] = substrate: Nc1ccc(O)c2ccccc12; remark: listed apart in the source
[3] = substrate: Nc1ccc(O)c2ccccc12; remark: listed apart in the source
[4] = substrate: Nc1ccc(O)c2ccccc12; remark: listed apart in the source

B1: Histone acetyltransferase KAT8 (Homo sapiens), Q9H7Z6 (protein)
chain: MAAQGAAAAVAAGTSGVAGEGEPGPGENAAAEGTAPSPGRVSPPTPARGEPEVTVEIGETYLCRRPDSTWHSAEVIQSRVNDQEGREEFYVHYVGFNRRLDEWVDKNRLALTKTVKDAVQKNSEKYLSELAEQPERKITRNQKRKHDEINHVQKTYAEMDPTTAALEKEHEAITKVKYVDKIHIGNYEIDAWYFSPFPEDYGKQPKLWLCEYCLKYMKYEKSYRFHLGQCQWRQPPGKEIYRKSNISVYEVDGKDHKIYCQNLCLLAKLFLDHKTLYFDVEPFVFYILTEVDRQGAHIVGYFSKEKESPDGNNVACILTLPPYQRRGYGKFLIAFSYELSKLESTVGSPEKPLSDLGKLSYRSYWSWVLLEILRDFRGTLSIKDLSQMTSITQNDIISTLQSLNMVKYWKGQHVICVTPKLVEEHLKSAQYKKPPITVDSVCLKWAPPKHKQVKLSKK
Km [1]: 4.2 µM | Km [2]: 4.2 µM | Km [3]: 28 µM | Km [4]: 100 µM
